Measured values taken from patent publication US20190002533A1 (Novartis, published 2019).

Legend:
[1] = target: VP1 on chimeric infectious BKV serotype II (BK virus (BKV) serotype II, UniProt P14996 1-362); experiment: cell-based or functional assay
[2] = target: VP1 of the pooled BKV serotype I resistance-associated variant (RAV) virus with 20 amino acid changes (BK virus (BKV) serotype I); experiment: cell-based or functional assay
[3] = target: T1, JCV VLPs (JC virus (JCV), UniProt P03089 1-354); experiment: ELISA on plate-coated JCV VLPs (OD 450 nm)
T1 construct: also called JC virus VLPs; JCV consensus

| Binder | EC50 (read off the curve) [3] | further results |
| --- | --- | --- |
| NEG447A (antibody, human IgG1, lambda, V domains shown) VH: QVQLQESGPGLVKPSETLSLTCTVSGGSISRDYWSWVRQPPGAGLEWIGNIYYSGSTNYNPSLKSRVTISVATNKKQFSLKLTSVTAADTAVYYCARVPGCSSTSCIDGWFDPWGQGILVTVSS VL: QSVLTQPPSVSAAPGQKVTISCSGSSSNIGNTYVSWYQQLPGTAPKLLIYDNNKRPSGIPDRFSGSKSGTSATLGITGLQTGDEADYYCGTWDSSLSAWVFGGGTRLTVLG | – | EC90 of neutralisation, fold change [1]: ~8 fold |
| P8D11 (antibody, human IgG1, lambda) heavy: not shown light: QSVLTQPPSVSVAPGKTARITCGGDNIGSRPVHWYQQKPGQAPILVVYDDSNRPSGIPERFSGSNSGNTATLTISRVEAGDEADYYCQVWSSSTDHPFGGGTKVTVLGQPKAAPSVTLFPPSSEELQANKATLVCLISDFYPGAVTVAWKADSSPVKAGVETTTPSKQSNNKYAASSYLSLTPEQWKSHRSYSCQVTHEGSTVEKTVAPTECS | – | shift in EC50 of neutralisation against wild-type virus [2]: 3.9 fold |
| 2077-26-1 (antibody, V domains shown) VH: EVQLQQSGPDLVKPGASMKLSCKASGYSFTGYTMNWVKQSHGKNLEWIGLFNPYNGGPSYNQKFKGKATLTVDKSSSTAYMELLSLTPEDSAVYYCARLRYYGIGDDFFDYWGQGTTLTVSS VL: DIVMTQSHKFMSTSVGDRVSITCKASQDVGTAVAWYQEKPGQSPKLLIYWASTRHTGVPDRFTGSGSGTDFTLTISNVQSEDLAYYFCQQYSNYPYTFGGGTKLEIK | ~0.07 nM | – |
| 2077-28-2 (antibody, V domains shown) VH: EVQLQQSGPELVKPGASMKISCKASGYSFTGYTMNWVKQSHGKNLEWIGLFNPYNGGATYNQRFKGKATLTVDKSSSTAYMDLLSLTSEDSAVYYCTRLRKYGIGDDFFDYWGQGTTLTVSS VL: DIVMTQSHKFMSTSVGDRVSITCKASQDVGTAVAWYQQKPGQSPKLLIYWASTRHTGVPDRFTGSGSGTDFTLTISNVQSEDLADYFCQQYSTYTYTFGGGTKLEIK | ~0.08 nM | – |
